According to FireProtDB (doi:10.1093/protein/gzu024):

Details: Homo sapiens, pH 7.4, Potassium phosphate buffer, NaCl, transition: 2, reversible: yes, structure 1TEN; for Tm / change of melting temperature, mutant - wild type (higher = more stable): Thermal, DSC

Substance	Tm	change of melting temperature, mutant - wild type (higher = more stable)	denaturant m value (23 °C, GdnSCN, fluorescence)	denaturant midpoint (higher = more stable) (23 °C, GdnSCN, fluorescence)	unfolding free energy (23 °C, GdnSCN, fluorescence)
Tenascin, P24821 L820K	56.7 °C	-2 °C	–	–	–
Tenascin, P24821 E887I T890K D850K	80.5 °C	21.8 °C	–	–	–
Tenascin, P24821 A885V	59.8 °C	1.1 °C	–	–	–
Tenascin, P24821 I833F	61 °C	2.3 °C	–	–	–
Tenascin, P24821 V811C I821C	50.6 °C	–	–	–	–
Tenascin, P24821 Q808K	59.9 °C	1.2 °C	–	–	–
Tenascin, P24821 E887I T890K D850K I833F	82.6 °C	23.9 °C	–	–	–
Tenascin, P24821 E887I T890K	74.9 °C	16.2 °C	–	–	–
Tenascin, P24821 E887I	69.9 °C	11.2 °C	–	–	–
Tenascin, P24821 T890K	63.9 °C	5.2 °C	–	–	–
Tenascin, P24821 D850K	63.7 °C	5 °C	–	–	–
Tenascin, P24821 T888C E870C I833C S875C	80.6 °C	–	4.17 kcal/mol/M	1.79 M	7.44 kcal/mol
